Legend:
[1] = tested on: HIV promoter (P-HIV) transactivation by Tat; test: Luc assay with replication-defective HIV-1 molecular clone pNL43ΔenvLuc in 293T cells; type: cell-based; settings: transient expression
[2] = tested on: HIV reactivation in 2D10 cells; test: HIV reactivation in 2D10 latent infection model, FACS of GFP positive cells; type: cell-based; settings: D-HT cells, 24 hrs
Text: FIGS. 4A and 4B. Stable expression of HT1 inhibits HIV reactivation. FIG. 4A: Stable expression of HT1 inhibits HIV reactivation from 2D10 cells. 3f:HT1 was stably expressed in 2D10 cells (D-HT cells). […] Error bars represent standard deviation from triplicate FACS analysis. FIG. 4B: Stable expression of HT1 inhibits HIV reactivation from J-Lat 9.2 cells. 3f:HT1 was stably expressed in J-Lat 9.2 cells (L-HT cells). […] Error bars represent standard deviation from triplicate FACS analysis.
To test the effect of HT1 on HIV-1 in T-lymphocyte derived cells, 3f:HT1 was stably expressed in HIV latent infection models 2D10 and J-Lat 9.2 cells (D-HT and L-HT cells respectively), which carry replication-defective, GFP-flagged HIV proviruses. In both 2D10 and J-Lat 9.2, the basal HIV transcription level is undetectable, as measured through GFP expression. Compounds such as the PKC agonist PMA, the histone deacetylase inhibitor SAHA or the BET bromodomain inhibitor JQ1 reactivate HIV transcription and increase GFP-positive cells detected by FACS analysis. 2D10 cells are more sensitive to HIV reactivation than J-Lat 9.2 cells, though they harbor a mutation in the N-terminal sequence of Tat (H13L). 2D10 and D-HT cells were incubated for 24 hrs with PMA (10 nM), SAHA (5 μM) or JQ1 (1 μM) and GFP positive cells were detected by FACS analysis. PMA, SAHA and JQ1 reactivated HIV from 65%, 71% and 58% less D-HT cells than from control 2D10 cells, respectively. Due to the limited HIV reactivation by SAHA and JQ1 in J-Lat 9.2 cells, we only treated them with PMA (100 nM), which induced a 12% increase in GFP expression.

7SK snRNA = test: Binding to endogenous 7SK snRNA
Text: Finally, since HEXIM1 ARM resembles the TAR-binding domain from Tat, we investigated whether HT1 could bind to HIV TAR. m:HT1 or m:Tat was co-expressed in 293T cells with TAR RNA, expressed under RNA Polymerase III dependent H1 promoter, and immunoprecipitated using anti-Myc Ab or IgG as a control. TAR RNAs co-immunoprecipitated with HT1 or Tat were quantified by RT-qPCR analysis. […] To test whether HT1 affects Tat-TAR interactions, increasing amounts of m:HT1 were also co-expressed with a fixed amount of f:Tat and TAR. […] As expected, HT1 also bound to endogenous 7SK snRNA.

B1: HT1 (protein)
chain: KKKHRRRPSKKKRHWKPYYKLTWEEKKKFDEKQSLRASRIRAEMFAKGQPVAPYNTTQFLMDDHDQEEPDLVDMEPVDPYLEPWKHPGSQPRTACNNCYCKKCCFHCYACFTRKGLGISYG
modifications: left off: small tags and cut ends
decrease in Luc expression [1]: 3 fold
fewer cells with reactivated HIV (GFP positive) than control 2D10 cells ([2]; JQ1 1 μM): 58%
fewer cells with reactivated HIV (GFP positive) than control 2D10 cells ([2]; PMA 10 nM): 65%
fewer cells with reactivated HIV (GFP positive) than control 2D10 cells ([2]; SAHA 5 μM): 71%
binding to endogenous 7SK snRNA (7SK snRNA): bound
